# US20180118786A1 (ECOLE POLYTECHNIQUE FEDERALE DE LAUSANNE EPFL, published 2018)
# Starred links: 1 amine or outer side, 2 acyl side, 3 side chain; linkers in the order of their positions; H or OH if unused. Positions of bridges follow the written chain, without caps; N, C: chain ends. Non-standard residues stand in square brackets, D forms with d. No end group written: not given here. TATA = O=C(CC[*:1])N1CN(C(=O)CC[*:2])CN(C(=O)CC[*:3])C1; Phe(4-guanidino) = N=C(N)Nc1ccc(C[C@H](N)C(=O)O)cc1; hArg = N=C(N)NCCCC[C@H](N)C(=O)O; Agb = N=C(N)NCC[C@H](N)C(=O)O
# Biological target: T1, human β-FXIIa (HFXIIAB; Molecular Innovations) (human, UniProt P00748 354-362; P00748 373-615, limits assumed)
# T1 construct: domain: catalytic domain; Bought; also called human b-FXIIa; human FXIIa
# Assay: protease inhibition assay
# T1 sequence (P00748 373-615 limits assumed, one chain of several): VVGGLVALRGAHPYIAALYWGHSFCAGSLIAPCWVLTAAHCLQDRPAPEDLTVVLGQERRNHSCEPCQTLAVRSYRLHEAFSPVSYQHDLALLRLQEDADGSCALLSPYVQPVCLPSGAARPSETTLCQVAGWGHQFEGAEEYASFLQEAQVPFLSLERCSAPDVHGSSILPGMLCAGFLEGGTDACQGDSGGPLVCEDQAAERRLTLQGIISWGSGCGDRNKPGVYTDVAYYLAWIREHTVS
fold reduction of affinity vs peptide 1 [fold],fold reduction of affinity vs FXII618 [fold],fold reduction of affinity vs peptide 2 [fold],fold reduction of activity vs peptide 2 [fold],Binder
,~200,,,"RCFRLPCRQGRCR-NH2 (linker 2-7-12 via TATA; N-terminus assumed; SMILES CC(C)C[C@@H]1NC(=O)[C@H](CCCNC(=N)N)NC(=O)[C@H](Cc2ccccc2)NC(=O)[C@@H](NC(=O)[C@@H](N)CCCNC(=N)N)CSCCC(=O)N2CN3CN(C2)C(=O)CCSC[C@H](NC(=O)[C@@H]2CCCN2C1=O)C(=O)N[C@@H](CCCNC(=N)N)C(=O)N[C@@H](CCC(N)=O)C(=O)NCC(=O)N[C@@H](CCCNC(=N)N)C(=O)N[C@H](C(=O)N[C@@H](CCCNC(=N)N)C(N)=O)CSCCC3=O) [peptide 87 (FXII618, Leu10 to glycine)]"
> 5,,,,"ACFRLPCRQLRCR-NH2 (linker 2-7-12 via TATA; N-terminus assumed; SMILES CC(C)C[C@@H]1NC(=O)[C@H](CCC(N)=O)NC(=O)[C@H](CCCNC(=N)N)NC(=O)[C@@H]2CSCCC(=O)N3CN(CN(C3)C(=O)CCSC[C@@H](C(=O)N[C@@H](CCCNC(=N)N)C(N)=O)NC(=O)[C@H](CCCNC(=N)N)NC1=O)C(=O)CCSC[C@H](NC(=O)[C@H](C)N)C(=O)N[C@@H](Cc1ccccc1)C(=O)N[C@@H](CCCNC(=N)N)C(=O)N[C@@H](CC(C)C)C(=O)N1CCC[C@H]1C(=O)N2, Number tied to residue by the order of the list) [peptide 66 (FXII618, Arg1 to alanine)]"
,~200,,,"RCFRLPCRGLRCR-NH2 (linker 2-7-12 via TATA; N-terminus assumed; SMILES CC(C)C[C@@H]1NC(=O)CNC(=O)[C@H](CCCNC(=N)N)NC(=O)[C@@H]2CSCCC(=O)N3CN(CN(C3)C(=O)CCSC[C@H](NC(=O)[C@@H](N)CCCNC(=N)N)C(=O)N[C@@H](Cc3ccccc3)C(=O)N[C@@H](CCCNC(=N)N)C(=O)N[C@@H](CC(C)C)C(=O)N3CCC[C@H]3C(=O)N2)C(=O)CCSC[C@@H](C(=O)N[C@@H](CCCNC(=N)N)C(N)=O)NC(=O)[C@H](CCCNC(=N)N)NC1=O) [peptide 85 (FXII618, Gln9 to glycine)]"
> 5,,,,"VCFRLPCRQLRCR-NH2 (linker 2-7-12 via TATA; N-terminus assumed; SMILES CC(C)C[C@@H]1NC(=O)[C@H](CCC(N)=O)NC(=O)[C@H](CCCNC(=N)N)NC(=O)[C@@H]2CSCCC(=O)N3CN(CN(C3)C(=O)CCSC[C@H](NC(=O)[C@@H](N)C(C)C)C(=O)N[C@@H](Cc3ccccc3)C(=O)N[C@@H](CCCNC(=N)N)C(=O)N[C@@H](CC(C)C)C(=O)N3CCC[C@H]3C(=O)N2)C(=O)CCSC[C@@H](C(=O)N[C@@H](CCCNC(=N)N)C(N)=O)NC(=O)[C@H](CCCNC(=N)N)NC1=O, Number tied to residue by the order of the list) [peptide 65 (FXII618, Arg1 to valine)]"

# Continued, binder first:
Binder,fold reduction of affinity vs peptide 1 [fold],fold reduction of affinity vs FXII618 [fold],fold reduction of affinity vs peptide 2 [fold],fold reduction of activity vs peptide 2 [fold]
"ICFRLPCRQLRCR-NH2 (linker 2-7-12 via TATA; N-terminus assumed; SMILES CC[C@H](C)[C@H](N)C(=O)N[C@H]1CSCCC(=O)N2CN3CN(C2)C(=O)CCSC[C@H](NC(=O)[C@@H]2CCCN2C(=O)[C@H](CC(C)C)NC(=O)[C@H](CCCNC(=N)N)NC(=O)[C@H](Cc2ccccc2)NC1=O)C(=O)N[C@@H](CCCNC(=N)N)C(=O)N[C@@H](CCC(N)=O)C(=O)N[C@@H](CC(C)C)C(=O)N[C@@H](CCCNC(=N)N)C(=O)N[C@H](C(=O)N[C@@H](CCCNC(=N)N)C(N)=O)CSCCC3=O, Number tied to residue by the order of the list) [peptide 64 (FXII618, Arg1 to isoleucine)]",> 5,,,
"H-RCF[hArg]LPCRQLRCRW-NH2 (linker 2-7-12 via TATA, Number tied to residue by the order of the list) [peptide 39 (peptide 2, Arg4 to homoarginine)]",,,≥ 5,
"RCVRLPCRQLRCRW-NH2 (linker 2-7-12 via TATA; N-terminus assumed; SMILES CC(C)C[C@@H]1NC(=O)[C@H](CCC(N)=O)NC(=O)[C@H](CCCNC(=N)N)NC(=O)[C@@H]2CSCCC(=O)N3CN(CN(C3)C(=O)CCSC[C@H](NC(=O)[C@@H](N)CCCNC(=N)N)C(=O)N[C@@H](C(C)C)C(=O)N[C@@H](CCCNC(=N)N)C(=O)N[C@@H](CC(C)C)C(=O)N3CCC[C@H]3C(=O)N2)C(=O)CCSC[C@@H](C(=O)N[C@@H](CCCNC(=N)N)C(=O)N[C@@H](Cc2c[nH]c3ccccc23)C(N)=O)NC(=O)[C@H](CCCNC(=N)N)NC1=O, Number tied to residue by the order of the list) [peptide 7 (peptide 2, Phe3 to valine)]",,,,> 10
"RCFRLPCRDLRCRW-NH2 (linker 2-7-12 via TATA; N-terminus assumed; SMILES CC(C)C[C@@H]1NC(=O)[C@H](CC(=O)O)NC(=O)[C@H](CCCNC(=N)N)NC(=O)[C@@H]2CSCCC(=O)N3CN(CN(C3)C(=O)CCSC[C@H](NC(=O)[C@@H](N)CCCNC(=N)N)C(=O)N[C@@H](Cc3ccccc3)C(=O)N[C@@H](CCCNC(=N)N)C(=O)N[C@@H](CC(C)C)C(=O)N3CCC[C@H]3C(=O)N2)C(=O)CCSC[C@@H](C(=O)N[C@@H](CCCNC(=N)N)C(=O)N[C@@H](Cc2c[nH]c3ccccc23)C(N)=O)NC(=O)[C@H](CCCNC(=N)N)NC1=O) [peptide 21 (peptide 2, Gln9 to aspartate)]",,,,54
"RCFRLPCRQIRCRW-NH2 (linker 2-7-12 via TATA; N-terminus assumed; SMILES CC[C@H](C)[C@@H]1NC(=O)[C@H](CCC(N)=O)NC(=O)[C@H](CCCNC(=N)N)NC(=O)[C@@H]2CSCCC(=O)N3CN(CN(C3)C(=O)CCSC[C@H](NC(=O)[C@@H](N)CCCNC(=N)N)C(=O)N[C@@H](Cc3ccccc3)C(=O)N[C@@H](CCCNC(=N)N)C(=O)N[C@@H](CC(C)C)C(=O)N3CCC[C@H]3C(=O)N2)C(=O)CCSC[C@@H](C(=O)N[C@@H](CCCNC(=N)N)C(=O)N[C@@H](Cc2c[nH]c3ccccc23)C(N)=O)NC(=O)[C@H](CCCNC(=N)N)NC1=O) [peptide 26 (peptide 2, Leu10 to isoleucine)]",,,,8
"RCIRLPCRQLRCRW-NH2 (linker 2-7-12 via TATA; N-terminus assumed; SMILES CC[C@H](C)[C@@H]1NC(=O)[C@@H](NC(=O)[C@@H](N)CCCNC(=N)N)CSCCC(=O)N2CN3CN(C2)C(=O)CCSC[C@H](NC(=O)[C@@H]2CCCN2C(=O)[C@H](CC(C)C)NC(=O)[C@H](CCCNC(=N)N)NC1=O)C(=O)N[C@@H](CCCNC(=N)N)C(=O)N[C@@H](CCC(N)=O)C(=O)N[C@@H](CC(C)C)C(=O)N[C@@H](CCCNC(=N)N)C(=O)N[C@H](C(=O)N[C@@H](CCCNC(=N)N)C(=O)N[C@@H](Cc1c[nH]c2ccccc12)C(N)=O)CSCCC3=O, Number tied to residue by the order of the list) [peptide 8 (peptide 2, Phe3 to isoleucine)]",,,,> 10
"RCFRIPCRQLRCRW-NH2 (linker 2-7-12 via TATA; N-terminus assumed; SMILES CC[C@H](C)[C@@H]1NC(=O)[C@H](CCCNC(=N)N)NC(=O)[C@H](Cc2ccccc2)NC(=O)[C@@H](NC(=O)[C@@H](N)CCCNC(=N)N)CSCCC(=O)N2CN3CN(C2)C(=O)CCSC[C@H](NC(=O)[C@@H]2CCCN2C1=O)C(=O)N[C@@H](CCCNC(=N)N)C(=O)N[C@@H](CCC(N)=O)C(=O)N[C@@H](CC(C)C)C(=O)N[C@@H](CCCNC(=N)N)C(=O)N[C@H](C(=O)N[C@@H](CCCNC(=N)N)C(=O)N[C@@H](Cc1c[nH]c2ccccc12)C(N)=O)CSCCC3=O) [peptide 12 (peptide 2, Leu5 to isoleucine)]",,,> 50,
"RCFRVPCRQLRCRW-NH2 (linker 2-7-12 via TATA; N-terminus assumed; SMILES CC(C)C[C@@H]1NC(=O)[C@H](CCC(N)=O)NC(=O)[C@H](CCCNC(=N)N)NC(=O)[C@@H]2CSCCC(=O)N3CN(CN(C3)C(=O)CCSC[C@H](NC(=O)[C@@H](N)CCCNC(=N)N)C(=O)N[C@@H](Cc3ccccc3)C(=O)N[C@@H](CCCNC(=N)N)C(=O)N[C@@H](C(C)C)C(=O)N3CCC[C@H]3C(=O)N2)C(=O)CCSC[C@@H](C(=O)N[C@@H](CCCNC(=N)N)C(=O)N[C@@H](Cc2c[nH]c3ccccc23)C(N)=O)NC(=O)[C@H](CCCNC(=N)N)NC1=O) [peptide 11 (peptide 2, Leu5 to valine)]",,,> 50,
"RCF[Agb]LPCRQLRCRW-NH2 (linker 2-7-12 via TATA, Number tied to residue by the order of the list) [peptide 40 (peptide 2, Arg4 to norarginine)]",,,≥ 5,
"RCF[Phe(4-guanidino)]LPCRQLRCRW-NH2 (linker 2-7-12 via TATA; N-terminus assumed; SMILES CC(C)C[C@@H]1NC(=O)[C@H](CCC(N)=O)NC(=O)[C@H](CCCNC(=N)N)NC(=O)[C@@H]2CSCCC(=O)N3CN(CN(C3)C(=O)CCSC[C@H](NC(=O)[C@@H](N)CCCNC(=N)N)C(=O)N[C@@H](Cc3ccccc3)C(=O)N[C@@H](Cc3ccc(NC(=N)N)cc3)C(=O)N[C@@H](CC(C)C)C(=O)N3CCC[C@H]3C(=O)N2)C(=O)CCSC[C@@H](C(=O)N[C@@H](CCCNC(=N)N)C(=O)N[C@@H](Cc2c[nH]c3ccccc23)C(N)=O)NC(=O)[C@H](CCCNC(=N)N)NC1=O, Number tied to residue by the order of the list) [peptide 41 (peptide 2, Arg4 to 4-guanidinophenylalanine)]",,,≥ 5,
"H-RCF[homolysine]LPCRQLRCRW-NH2 (linker 2-7-12 via TATA) [peptide 38 (peptide 2, Arg4 to homolysine)]",,,≥ 5,

# Biological target: T1, human β-FXIIa (HFXIIAB; Molecular …)
# Assay: protease inhibition assay, fluorogenic substrate
row,Ki [nM],Binder
1,27.4,"KCFRLPCRQLRCR-NH2 (linker 2-7-12 via TATA; N-terminus assumed; SMILES CC(C)C[C@@H]1NC(=O)[C@H](CCC(N)=O)NC(=O)[C@H](CCCNC(=N)N)NC(=O)[C@@H]2CSCCC(=O)N3CN(CN(C3)C(=O)CCSC[C@H](NC(=O)[C@@H](N)CCCCN)C(=O)N[C@@H](Cc3ccccc3)C(=O)N[C@@H](CCCNC(=N)N)C(=O)N[C@@H](CC(C)C)C(=O)N3CCC[C@H]3C(=O)N2)C(=O)CCSC[C@@H](C(=O)N[C@@H](CCCNC(=N)N)C(N)=O)NC(=O)[C@H](CCCNC(=N)N)NC1=O) [peptide 67 (FXII618, Arg1 to lysine)]"
